This is an account of results in patent US20030027246A1 (published 2003).

The target in assay [1] is T1, membrane-bound HLA-A0201 molecule on T2 cells (human).
T1 construct: whole, on cells; also called human MHC class 1 molecule
Nature of the assay: T2 cell HLA-A0201 stabilisation, BB7.2 staining, flow cytometry. How it is done: (§1) Thus, the detection of this specific epitope is indicative of stable membrane-bound HLA-A0201 molecules loaded with peptide.
(§2) T2 cells were propagated in Iscove's complete medium (Iscove's medium supplemented with 10% heat-inactivated bovine serum, 120.0 units per ml of penicillin G sodium, 120 μg per ml of streptomycin sulphate, and 0.35 mg per ml of L-glutamine). The ability of PSMA peptides (Table 1) to bind and stabilize surface HLA-A0201 molecules on T2 cells was determined utilizing a protocol documented in the art (Deng, Y. (1997) J Immunol 158:1507-1515). In essence, 0.5×10⁶ T2 cells were incubated with 125.0 μM of the test peptide in 200.0 μl of serum-free culture medium (Iscove's medium supplemented with 120.0 units per ml of penicillin G sodium, 120.0 μg per ml of streptomycin sulphate and 0.35 mg per ml of L-glutamine) overnight at 37° C. Subsequently, cells were washed twice with Iscove's medium (without bovine serum) to remove free PSMA peptide. To the cell pellet was added 1.0 ml of complete Iscove's medium (supplemented with fetal bovine serum (10% final)) containing 5.0 μg per ml of brefeldin A (Sigma), 12.5 μg per ml of anisomycin (Sigma) and 5.0 μg per ml of cyclohexamide (Sigma). The samples were incubated for 3.0 hr in a 37° C. CO₂ incubator. The cells were subsequently incubated 30 min on ice prior to two washes with ice-cold PBA (phosphate buffered saline (pH 7.2) containing 2.0% bovine serum). 100.0 μl of PBA containing 5.0 μg of monoclonal antibody BB7.2 was added to each test sample. The reaction was allowed to proceed on ice for 45 min. Cells were then washed three times with ice-cold PBA. The binding of BB7.2 was detected via the addition of 100.0 μl of PBA containing 1.0 μg of goat anti-mouse IgG-Fc fluorescein (FITC) conjugate (BETHYL Laboratories Inc.). After a 30 min incubation on ice, cells were twice washed with ice-cold PBA, and twice with ice-cold PBS (pH 7.2). […] Samples were analyzed by Flow Cytometry. Results were expressed in units of Fluorescence Index (FI), calculated by the equation: […]

In assay [2] the target is T1, membrane-bound HLA-A0201 molecule on T2 …. The description is as above. How it is done:
as §2, with “The samples were incubated for 3.0 hr in a 37° C. CO₂ incubator. The cells were subsequently incubated 30 min on ice prior to two washes with ice-cold PBA (phosphate buffered saline (pH 7.2) containing 2.0% bovine serum). 100.0 μl of PBA containing 5.0 μg of monoclonal antibody BB7.2 was added to each test sample. The reaction was allowed to proceed on ice for 45 min. Cells were then washed three times with ice-cold PBA.” left out, “Inc.).” for “Inc.). After a 30 min incubation on ice, cells were twice washed with ice-cold PBA, and twice with ice-cold PBS (pH 7.2).”
The source holds these as a separate data set.

The target is the same in assay [3]. The assay is described as follows: T2 cell HLA-A0201 stabilisation at 125.0 µM peptide, BB7.2 staining, flow cytometry. How it is done: as §1, §2

Read-outs that look alike come from different tables or passages of the source.

For the molecule NLNGAGDPL (also called PSMA 260-268) [CLP-331], the binding result in assay [1] is reported as “no binding”.

B1: CLP-324 (peptide)
peptide: LDSVELAHY
notes: Negative control; also called negative control peptide; PSMA 105-113
On to B1, for which, in assay [2], the binding result is reported as “no binding (tested: 125.0 µM peptide)”.
On to LLHETDSAV (also called PSMA 4-12) [CLP-326], for which the “Fluorescence Index (FI)” value in assay [3] was 0.6 FI.
In the case of NMKAFLDEL (also called PSMA 57-65) [CLP-329], the binding result in assay [1] is “no binding”.
As for MMNDQLMFL (also called CPL-336; PSMA 663-671) [CLP-336], the “Fluorescence Index (FI)” value in assay [3] turned out to be 3.7 FI.
Turning to LMYSLVHNL (also called PSMA 469-477) [CLP-333], the “Fluorescence Index (FI)” value in assay [3] came out at 2.7 FI.
PMFKYHLTV (also called PSMA 568-576) [CLP-334]: the binding result in assay [1] is “no binding”.
